US20220372125A1 (ASLAN PHARMACEUTICALS PTE, published 2022)

Tests used:
[1] = molecular target: T1, Mammalian expressed extracellular human RON protein (Gly25 to Thr957) with His-tag (human, UniProt Q04912 25-957); experiment: KinExA, fixed antigen format, antibody titrated into fixed RON ECD-His
T1 construct: Expressed in ExpiCHO cells, purified on nickel; Position of the His-tag is told inconsistently; Written as one chain; also called RON ECD; RON ECD antigen; not shown: His-tag
T1 sequence: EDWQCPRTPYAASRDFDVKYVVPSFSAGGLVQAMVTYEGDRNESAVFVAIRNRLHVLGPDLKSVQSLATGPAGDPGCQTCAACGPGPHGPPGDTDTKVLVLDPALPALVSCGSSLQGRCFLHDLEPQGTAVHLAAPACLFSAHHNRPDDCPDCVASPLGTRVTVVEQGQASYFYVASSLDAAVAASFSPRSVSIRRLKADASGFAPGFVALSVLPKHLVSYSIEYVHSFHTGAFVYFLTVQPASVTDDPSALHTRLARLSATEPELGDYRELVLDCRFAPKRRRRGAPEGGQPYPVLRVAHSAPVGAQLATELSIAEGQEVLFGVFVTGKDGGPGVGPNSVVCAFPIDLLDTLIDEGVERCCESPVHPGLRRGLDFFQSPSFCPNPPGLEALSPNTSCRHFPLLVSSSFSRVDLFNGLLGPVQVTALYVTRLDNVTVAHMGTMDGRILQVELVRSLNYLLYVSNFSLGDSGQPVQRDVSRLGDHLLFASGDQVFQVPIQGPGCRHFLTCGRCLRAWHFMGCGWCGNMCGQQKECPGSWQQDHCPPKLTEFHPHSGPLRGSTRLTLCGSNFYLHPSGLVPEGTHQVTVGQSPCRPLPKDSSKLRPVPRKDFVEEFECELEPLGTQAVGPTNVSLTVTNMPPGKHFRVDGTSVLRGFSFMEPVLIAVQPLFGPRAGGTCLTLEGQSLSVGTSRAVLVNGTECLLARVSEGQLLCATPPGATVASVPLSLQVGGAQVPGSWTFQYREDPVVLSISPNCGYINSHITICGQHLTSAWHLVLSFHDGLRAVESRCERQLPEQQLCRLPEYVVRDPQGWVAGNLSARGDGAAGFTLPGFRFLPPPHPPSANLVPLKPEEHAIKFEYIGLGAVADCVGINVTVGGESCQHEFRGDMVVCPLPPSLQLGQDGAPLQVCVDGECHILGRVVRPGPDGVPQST
Description: (§1) This limitation of the SPR method for highly avid antibodies has been described previously and the use of kinetic exclusion assay has been proposed as a way to overcome this limitation allowing measurements in the sub nanomolar range. We employed the Kinetic Exclusion assay (KinEXa) method to measure the Kd values of all of the new antibodies using a fixed concentration of the recombinant mammalian expressed protein as the target antigen and a twelve-point dilution curve of each antibody. We dropped antibody 9F6, in this assay as it seemed less avid than the other antibodies in preliminary SPR binding assays. The remaining seven antibodies gave exactly accurate results in duplicate analysis (FIG. 6).
(§2) Mammalian produced recombinant extracellular His-tag RON protein was used for affinity measurements. Affinity determinations were carried out in the fixed antigen format. Antibodies were titrated as two-fold dilutions into a fixed concentration of RON antigen. RON protein was detected using mouse monoclonal to 6×His-Tag (Dylight@650, Thermo Fisher). All affinity measurements were carried out using the KinExa 4000 (Sapidyne Instruments).

[2] = molecular target: T1, Mammalian expressed extracellular human …; experiment: KinExA, RON-HIS; 95% Confidence Level 2.52 x 106 to 6.93 x 106
[3] = molecular target: T1, Mammalian expressed extracellular human …; experiment: KinExA, RON-HIS; 95% Confidence Level 14.92 pM to 49.11 pM
Experimental: as §2

[4] = molecular target: RON (Macrophage stimulating protein receptor), full length, on cells (human, UniProt Q04912 25-1400); experiment: cell-based or functional assay
[5] = molecular target: T1, Mammalian expressed extracellular human …; experiment: KinExA, RON-HIS
[6] = molecular target: T1, Mammalian expressed extracellular human …; experiment: KinExA, apparent Kd, column 'Kd by Kinexa (nM)' [continued]
Experimental: Titration curves were generated using indicated fixed concentrations of extracellular RON antigens measured by calibration free concentration analysis (CFCA). Increasing concentrations of RON antibodies were titrated for measurement of binding. Apparent Kd values were determined from an average of the two curves and plotted in table shown.
as §1, §2

[7] = molecular target: T1, Mammalian expressed extracellular human …; experiment: KinExA, RON-HIS; 95% Confidence Level 448.10 pM to 200.01 pM
Experimental: as §2

[8] = molecular target: T1, Mammalian expressed extracellular human …; experiment: KinExA, RON-HIS; 95% Confidence Level 2.24 x 106 to 4.45 x 106
[9] = molecular target: T1, Mammalian expressed extracellular human …; experiment: KinExA, RON-HIS; 95% Confidence Level 1.05 x 105 to 1.61 x 105
[10] = molecular target: T1, Mammalian expressed extracellular human …; experiment: KinExA, RON-HIS; 95% Confidence Level 1.74 nM to 4.11 nM
Experimental: as §2

[11] = molecular target: T1, Mammalian expressed extracellular human …; experiment: KinExA, RON-HIS; 95% Confidence Level 167.21 pM to 304.60 pM
Experimental: as §2

[12] = molecular target: T1, Mammalian expressed extracellular human …; experiment: KinExA, RON-HIS; 95% Confidence Level 9.65 x 105 to 1.60 x 106
[13] = molecular target: T1, Mammalian expressed extracellular human …; experiment: KinExA, RON-HIS; 95% Confidence Level 2.55 x 105 to 2.81 x 105
[14] = molecular target: T1, Mammalian expressed extracellular human …; experiment: KinExA, RON-HIS; 95% Confidence Level 5.94 nM to 11.84 nM
Experimental: as §2

[15] = molecular target: T1, Mammalian expressed extracellular human …; experiment: KinExA, RON-HIS; 95% Confidence Level 2.68 x 105 to 3.10 x 105
[16] = molecular target: T1, Mammalian expressed extracellular human …; experiment: KinExA, RON-HIS; 95% Confidence Level 8.64 nM to 18.70 nM
Experimental: as §2

[17] = molecular target: T1, Mammalian expressed extracellular human …; experiment: KinExA, RON-HIS; 95% Confidence Level 92.36 pM to 219.67 pM
Experimental: as §2

[18] = molecular target: T1, Mammalian expressed extracellular human …; experiment: KinExA, RON-HIS; 95% Confidence Level 2.30 x 106 to 2.74 x 106

B1: 10G1 (antibody, V domains shown)
VH: EVKLEQSGGGLVQPGGSRKLSCAASGFTFSSFGMHWVRQAPEKGLEWVAYISGGSGTFYYADTVKGRFTISRDNPKNTLFLQMTSLRSEDTAIYYCARSTTVLDYWGQGTTLTVSS
VL: DIVLTQTPSSMYAFLGERVTIICKASQDINNYLNWVQQKPGKAPKTLIYHADRLADGVPSRFSGSGSGQDYSLTISSLEYEDMGIYYCLQYDDFPPFTFGSGTKLEIK
notes: Mouse monoclonal antibody from a hybridoma; kappa light chain; also called Antibody 10G1; anti-RON antibody 10G1
[1]
  Kd: 0.029 nM
[2]
  kon: 4.12e+06 M⁻¹ s⁻¹
[3]
  Kd: 0.0294 nM
[4]
  IC50 of inhibition of MSP induced ERK phosphorylation (AlphaLISA SureFire p-ERK, T47D cells): 2.8 nM
[5]
  koff: 0.000121 s⁻¹

B2: 3G4 (antibody, V domains shown)
VH: EVQLQESGPELVKPGTSVRISCKASGYTFTSYYMHWVKQRPGQGLEWIGYIYPGNVNTKYNEKFKGKATLTADKSSSTAYMQLSSLTSEDSAVYFCARLGYYRYGGAMDYWGQGTAVTVSS
VL: DIVLTQTPAILSVSPGERVSFSCRASQSIGTSIHWYQQRTNGSPRLLIKYASESISGIPSRFSGSGSGTDFTLRINSVESEDLADYYCQQSDSWPTTFGGGTKLEIKR
notes: Mouse monoclonal antibody from a hybridoma (supernatant or purified); kappa light chain; also called Antibody 3G4; anti-RON antibody 3G4
[6]
  Kd: 0.3 nM
[7]
  Kd: 0.305 nM
[4]
  IC50 of inhibition of MSP induced ERK phosphorylation (AlphaLISA SureFire p-ERK, T47D cells): 68 nM
[5]
  koff: 0.000968 s⁻¹
[8]
  kon: 3.18e+06 M⁻¹ s⁻¹

B3: 9F2 (antibody, V domains shown)
VH: QVKLQQSGPGLVAPSQSLSITCTVSGFSLTSYGVHWVRQPPGKGLEWLGVIWAGGTTNYNSALMSRLSISKDNSKSQVFLKMNSLQTDDTAMYYCASYDYDGYFDVWGAGTTVTVSS
VL: DIVLTQTTAIMSASPGEKVTMTCSASSSVSYIHWYQQKSSTSPKLWIYDTSKLASGVPGRFSGSGSGNSYSLTISSMEAEDVATYYCFQGNKYPLTFGAGTKLELK
notes: Mouse monoclonal antibody from a hybridoma; kappa light chain; also called Antibody 9F2; anti-RON antibody 9F2
[6]
  Kd: 2.7 nM
[9]
  kon: 129000 M⁻¹ s⁻¹
[10]
  Kd: 2.74 nM
[5]
  koff: 0.00353 s⁻¹

B4: 7H11 (antibody, V domains shown)
VH: EVKLEQSGPELVKPGASVKISCKASGYTFTDYNMHWVRQPPGQSLEWIGFIYPYNGNSGYNPNFKTKATLTMDISSSTAYMEVRNLTSEDSATYFCASLYYLGYFDVWGAGTTVTVSS
VL: DIVLTQSPVSLAVSLGQRATISCRASKSVSTSAYNFMHWYQQKPGQPPKLLIYLASNLESGVPARLSGSGSGTDFTLNIHPVEEEDAATYYCQHSRELPYTFGGGTKLEIKR
notes: Mouse monoclonal antibody from a hybridoma; kappa light chain; also called Antibody 7H11; anti-RON antibody 7H11
[6]
  Kd: 0.23 nM
[11]
  Kd: 0.23 nM
[12]
  kon: 1.25e+06 M⁻¹ s⁻¹
[5]
  koff: 0.000286 s⁻¹

B5: 6A9 (antibody, V domains shown)
VH: EVKLEESGPGLLKPSQSLSLTCTVTGSSITSDYAWNWIRQFPGNKLEWMGYIGYSVGTSHNPSLKGRISITRDTSKNQFFLHLNSVTTEDTAIYYCARRPLYFYYAMDFWGQGTSVTVSS
VL: DIVLTQSPSSLSASLGDRVTITCRASQDISKYLNWYQQKPDGTVKLLIYYTSTLHSGVPSRFSGSGSGTDFSLTITNLEQEDIATYFCQQGNTLPRTFGGGTKLEIK
notes: Mouse monoclonal antibody from a hybridoma; kappa light chain; also called Antibody 6A9; anti-RON antibody 6A9
[6]
  Kd: 8.6 nM
[13]
  kon: 266000 M⁻¹ s⁻¹
[14]
  Kd: 8.57 nM
[5]
  koff: 0.00228 s⁻¹

B6: 3F6 (antibody, V domains shown)
VH: EVKLEESGPGLVKPSQSLSLTCSVTGYSITSGYYWNWIRQFPGNKLEWMGFMSYDGSNNYNPSLKNRISITRDTSKNQFFLKLNSVTSEDTATYYCSRALAYYGNFDYWGQGTTLTVSS
VL: DIVLTQTPSSLSASLGDRVTISCSASQDISNYLNWYQQKPDGIVKLLIYYTSSLHSGVPSRFSGSGSGTDFSLTISNLEPEDIATYYCQQYNKLPWTFGGGTKLEIK
notes: Mouse monoclonal antibody from a hybridoma; kappa light chain; also called anti-RON antibody 3F6
[6]
  Kd: 13.4 nM
[15]
  kon: 270000 M⁻¹ s⁻¹
[16]
  Kd: 13.4 nM

B7: 3F8 (antibody, V domains shown)
VH: EVKLQESGGGLVQPGRSLKLSCVASGFTFSSFWMHWVRQSPEKGLEWVAEIRLKSNNYATHYAESVKGRFTISRDDSKSSVHLQMNNLRTEDTGIYYCIPPYYYTVDYWGQGTSVTVSS
VL: DIVLTQTPKVMSTSVGDRVSVTCKASQNVNTNVAWYQQKPGQSPKALIYSASSRYSGVPDRFTGSGSGTDFTLTISNVQSEDLADYFCQQYNTYPLTFAAGTKLELK
notes: Mouse monoclonal antibody from a hybridoma; kappa light chain; also called Antibody 3F8; anti-RON antibody 3F8
[6]
  Kd: 0.15 nM
[5]
  koff: 0.000358 s⁻¹
[17]
  Kd: 0.146 nM
[18]
  kon: 2.44e+06 M⁻¹ s⁻¹
